# Reference: patent publication US20230035659A1, “Compositions and Methods for TTR Gene Editing and Treating ATTR Amyloidosis Comprising a Corticosteroid or Use Thereof” (Intellia Therapeutics, Inc., priority 2019, published 2023)
# Strand notation (5' to 3'): a small letter for the sugar, then the base; units joined by * are phosphorothioate-linked, units joined directly phosphodiester-linked; [ ] holds rarer units or linkages, { } end groups; capitals alone tell only the bases. m = 2'-O-methyl; r = 2'-OH (RNA)
# Tested on: TTR
# Test: TTR editing in primary cyno hepatocytes treated with LNP formulated Spy Cas9 mRNA (SEQ ID NO: 2) and sgRNAs, 12.5 ng mRNA
# Type: cell-based, cynomolgus monkey
# Settings: LNP formulated Spy Cas9 mRNA (SEQ ID NO: 2) and cyno matched sgRNA, lysed 72 hours post treatment
# Protocol: Primary liver hepatocytes. Primary human liver hepatocytes (PHH) and primary cynomolgus liver hepatocytes (PCH) (Gibco) were cultured per the manufacturer's protocol (Invitrogen, protocol 11.28.2012). In brief, the cells were thawed and resuspended in hepatocyte thawing medium with supplements (Gibco, Cat. CM7000) followed by centrifugation at 100 g for 10 minutes for human and 80 g for 4 minutes for cyno. The supernatant was discarded and the pelleted cells resuspended in hepatocyte plating medium plus supplement pack (Invitrogen, Cat. A1217601 and CM3000). Cells were counted and plated on Bio-coat collagen I coated 96-well plates (ThermoFisher, Cat. 877272) at a density of 33,000 cells/well for human or 60,000 cells/well for cyno (or 65,000 cells/well when assaying effects on TTR protein, described further below). Plated cells were allowed to settle and adhere for 6 or 24 hours in a tissue culture incubator at 37° C. and 5% CO2 atmosphere. After incubation cells were checked for monolayer formation and media was replaced with hepatocyte culture medium with serum-free supplement pack (Invitrogen, Cat. A1217601 and CM4000).
# In general, the lipid nanoparticle components were dissolved in 100% ethanol with the lipid component of various molar ratios. The RNA cargos were dissolved in 25 mM citrate, 100 mM NaCl, pH 5.0, resulting in a concentration of RNA cargo of approximately 0.45 mg/mL. The LNPs were formulated with a lipid amine to RNA phosphate (N:P) molar ratio of about 4.5 or about 6, with the ratio of mRNA to gRNA at 1:1 by weight.
# The LNPs were formed by microfluidic mixing of the lipid and RNA solutions using a Precision Nanosystems NanoAssemblr™ Benchtop Instrument, according to the manufacturer's protocol. A 2:1 ratio of aqueous to organic solvent was maintained during mixing using differential flow rates. […]
# Additional PCR was performed per the manufacturer's protocols (Illumina) to add chemistry for sequencing. […] The reads were aligned to a reference genome (e.g., the human reference genome (hg38), the cynomologus reference genome (mf5), the rat reference genome (rn6), or the mouse reference genome (mm10)) after eliminating those having low quality scores. The resulting files containing the reads were mapped to the reference genome (BAM files), where reads that overlapped the target region of interest were selected and the number of wild type reads versus the number of reads which contain an insertion, substitution, or deletion was calculated.
# The editing percentage (e.g., the “editing efficiency” or “percent editing” or “indel frequency”) is defined as the total number of sequence reads with insertions/deletions (“indels”) or substitutions over the total number of sequence reads, including wild type. […]
molecule,measurement,value
"G000502: TTR Cyno specific sgRNA modified sequence, SEQ ID NO: 114; guide sequence of CR000689; cross homologous between mouse and cyno (nucleic acid) guide: mA*mC*mA*rCrArArArUrArCrCrArGrUrCrCrArGrCrGrGrUrUrUrUrArGrAmGmCmUmAmGmAmAmAmUmAmGmCrArArGrUrUrArArArArUrArArGrGrCrUrArGrUrCrCrGrUrUrArUrCrAmAmCmUmUmGmAmAmAmAmAmGmUmGmGmCmAmCmCmGmAmGmUmCmGmGmUmGmCmU*mU*mU*mU","12.5 ng mRNA, 3.9 nM sgRNA, Avg % Edit",80.70%
